Measurements reported in publication PMC8837033.

Biological target: Shp-2 (UniProt P35235)
Assay: anti-FLAG co-IP, Shp-2 immunoblot
Details: reference: wild type, 1 mM pervanadate; sites Y447,Y470

- binding against the reference: lost
Substance: Siglec-8 (from UniProt Q9NYZ4) Y447F+Y470F, 1 mM pervanadate
